Results: paper PMC6735392, “The miR-26a/AP-2α/Nanog signaling axis mediates stem cell self-renewal and temozolomide resistance in glioma”

Biological target: GST-AP-2α (UniProt P05549 1-437)
Assay: EMSA; EMSA/Gel-Shift Kit (Beyotime) binding buffer, 10 μL, 5 μg GST-AP-2α, 2 pmol biotin probe, 30 min room temperature, 4% nondenaturing gel; salt and pH not stated
Conditions: protein: recombinant, tags: GST, blunt

Sequence of GST-AP-2α (P05549 whole entry): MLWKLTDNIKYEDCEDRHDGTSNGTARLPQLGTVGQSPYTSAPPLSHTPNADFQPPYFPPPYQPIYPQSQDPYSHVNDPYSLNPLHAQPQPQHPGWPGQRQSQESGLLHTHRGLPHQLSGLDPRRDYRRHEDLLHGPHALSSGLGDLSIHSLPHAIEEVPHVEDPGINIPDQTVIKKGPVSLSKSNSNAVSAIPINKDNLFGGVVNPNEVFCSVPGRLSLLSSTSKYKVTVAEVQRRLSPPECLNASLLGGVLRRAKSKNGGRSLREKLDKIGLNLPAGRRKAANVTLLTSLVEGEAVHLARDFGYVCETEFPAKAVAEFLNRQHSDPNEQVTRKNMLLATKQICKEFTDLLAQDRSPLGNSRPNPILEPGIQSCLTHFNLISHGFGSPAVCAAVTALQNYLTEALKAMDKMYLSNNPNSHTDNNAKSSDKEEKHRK

B1: Nanog(-568/-544) mut (dsDNA)
DNA 1: GATCCGCCTATTACGTCATCCCAAT
DNA 2: ATTGGGATGACGTAATAGGCGGATC
binding result (label: 3' biotin): no binding

B2: Nanog(-527/-503) WT (dsDNA)
DNA 1: GGTGGGCCACCGCGCCCGGCCTTTT
DNA 2: AAAAGGCCGGGCGCGGTGGCCCACC
binding result (label: 3' biotin (hot probe)): binds

B3: Nanog(-527/-503) mut (dsDNA)
DNA 1: GGTGGGCCACCAAGCCCATACTTTT
DNA 2: AAAAGTATGGGCTTGGTGGCCCACC
binding result (label: 3' biotin): no binding

B4: Nanog(-568/-544) WT (dsDNA)
DNA 1: GATCCGCCTGCCACGGCCTCCCAAT
DNA 2: ATTGGGAGGCCGTGGCAGGCGGATC
binding result (label: 3' biotin (hot probe)): binds
